# Target: HLA-A*02:01 (Homo sapiens, UniProt P04439, D140Y/D185E/D98H/E176V/E277Q/G131W/G231S/I119V/I121R/I166T/I218V/L300P/L318F/N151K/N90K/P208A/P217A/Q86G/Q94H/R138H/R169H/T345S)
# Experiment: MHC binding assay (UV-ligand exchange, beta2m ELISA)
# Conditions: binding to HLA-A*02:01, UV-ligand exchange
# Summary of the method: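 Peptide–MHC complexes formed by UV-ligand exchange, cleaving a UV-sensitive peptide so the test peptide can bind. Exchange yield measured by ELISA: complexes captured on streptavidin-coated wells, diluted 100-fold, detected with HRP anti-β2m (1 h, 37 °C) and TMB at 450 nm, against refolded HLA-A*02:01/MLA-001 standards (15-500 ng/ml).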
row,Substance,"Peptide exchange (MHC class I binding score, peptide exchange yield)"
1,253 (YSDDDVPSV; listed as Homo sapiens) [compound 253],“++++” (≥75% = ++++)
2,254 (FLYSETWNI; listed as Homo sapiens) [compound 254],“++++” (≥75% = ++++)
3,256 (ALQETPPQV; listed as Homo sapiens) [compound 256],“+++” (≥50 = +++)
4,258 (RIYPFLLMV; listed as Homo sapiens) [compound 258],“+++” (≥50 = +++)
5,260 (RLDEAFDFV; listed as Homo sapiens) [compound 260],“++++” (≥75% = ++++)
6,261 (FLPETRIMTSV; listed as Homo sapiens) [compound 261],“++++” (≥75% = ++++)
7,262 (LMGPVVHEV; listed as Homo sapiens) [compound 262],“++++” (≥75% = ++++)

# Tested on: CD8+ T cells
# Experiment: In vitro T-cell priming immunogenicity assay (aAPC with pMHC and anti-CD28, multimer staining)
# Type: cell-based, human
# Conditions: HLA-A*02 restricted peptides; percentage of positive wells and donors (among evaluable)
# From the text: In order to obtain information regarding the immunogenicity of the TUMAPs of the present invention, the inventors performed investigations using an in vitro T-cell priming assay based on repeated stimulations of CD8+ T cells with artificial antigen presenting cells (aAPCs) loaded with peptide/MHC complexes and anti-CD28 antibody.
# In order to perform in vitro stimulations by artificial antigen presenting cells loaded with peptide-MHC complex (pMHC) and anti-CD28 antibody, the inventors first isolated CD8+ T cells from fresh HLA-A*02 leukapheresis products via positive selection using CD8 microbeads (Miltenyi Biotec, Bergisch-Gladbach, Germany) of healthy donors obtained from the University clinics Mannheim, Germany, after informed consent.
# PBMCs and isolated CD8+ lymphocytes were incubated in T-cell medium (TCM) until use consisting of RPMI-Glutamax (Invitrogen, Karlsruhe, Germany) supplemented with 10% heat inactivated human AB serum (PAN-Biotech, Aidenbach, Germany), 100 U/ml Penicillin/100 μg/ml Streptomycin (Cambrex, Cologne, Germany), 1 mM sodium pyruvate (CC Pro, Oberdorla, Germany), 20 μg/ml Gentamycin (Cambrex). 2.5 ng/ml IL-7 (PromoCell, Heidelberg, Germany) and 10 U/ml IL-2 (Novartis Pharma, Nurnberg, Germany) were also added to the TCM at this step.
# Generation of pMHC/anti-CD28 coated beads, T-cell stimulations and readout was performed in a highly defined in vitro system using four different pMHC molecules per stimulation condition and 8 different pMHC molecules per readout condition.
# The purified co-stimulatory mouse IgG2a anti human CD28 Ab 9.3 (Jung et al., 1987) was chemically biotinylated using Sulfo-N-hydroxysuccinimidobiotin as recommended by the manufacturer (Perbio, Bonn, Germany). Beads used were 5.6 μm diameter streptavidin coated polystyrene particles (Bangs Laboratories, Illinois, USA).
# 800.000 beads/200 μl were coated in 96-well plates in the presence of 4×12.5 ng different biotin-pMHC, washed and 600 ng biotin anti-CD28 were added subsequently in a volume of 200 μl. Stimulations were initiated in 96-well plates by co-incubating 1×10^6 CD8+ T cells with 2×10^5 washed coated beads in 200 μl TCM supplemented with 5 ng/ml IL-12 (PromoCell) for 3 days at 37° C. Half of the medium was then exchanged by fresh TCM supplemented with 80 U/ml IL-2 and incubating was continued for 4 days at 37° C. This stimulation cycle was performed for a total of three times. For the pMHC multimer readout using 8 different pMHC molecules per condition, a two-dimensional combinatorial coding approach was used as previously described (Andersen et al., 2012) with minor modifications encompassing coupling to 5 different fluorochromes. Finally, multimeric analyses were performed by staining the cells with Live/dead near IR dye (Invitrogen, Karlsruhe, Germany), CD8-FITC antibody clone SK1 (BD, Heidelberg, Germany) and fluorescent pMHC multimers. For analysis, a BD LSRII SORP cytometer equipped with appropriate lasers and filters was used. Peptide specific cells were calculated as percentage of total CD8+ cells. Evaluation of multimeric analysis was done using the FlowJo software (Tree Star, Oregon, USA). In vitro priming of specific multimer+CD8+ lymphocytes was detected by comparing to negative control stimulations.
row,Substance,Wells positive [%]
1,253 (YSDDDVPSV; listed as Homo sapiens) [compound 253],“+++” (50% - 69% = +++)
2,254 (FLYSETWNI; listed as Homo sapiens) [compound 254],“+” (<20% = +)
3,256 (ALQETPPQV; listed as Homo sapiens) [compound 256],“+” (<20% = +)
4,258 (RIYPFLLMV; listed as Homo sapiens) [compound 258],“++++” (≥70% = ++++)
5,260 (RLDEAFDFV; listed as Homo sapiens) [compound 260],“+” (<20% = +)
6,261 (FLPETRIMTSV; listed as Homo sapiens) [compound 261],“+” (<20% = +)
7,262 (LMGPVVHEV; listed as Homo sapiens) [compound 262],“++” (20% - 49% = ++)
